Residue numbers refer to the chain shown, from its start.
Legend:
CasX variant 438 = molecular target: T1, CasX variant 438 (synthetic construct); experiment: cleavage_in_vitro
T1 chain: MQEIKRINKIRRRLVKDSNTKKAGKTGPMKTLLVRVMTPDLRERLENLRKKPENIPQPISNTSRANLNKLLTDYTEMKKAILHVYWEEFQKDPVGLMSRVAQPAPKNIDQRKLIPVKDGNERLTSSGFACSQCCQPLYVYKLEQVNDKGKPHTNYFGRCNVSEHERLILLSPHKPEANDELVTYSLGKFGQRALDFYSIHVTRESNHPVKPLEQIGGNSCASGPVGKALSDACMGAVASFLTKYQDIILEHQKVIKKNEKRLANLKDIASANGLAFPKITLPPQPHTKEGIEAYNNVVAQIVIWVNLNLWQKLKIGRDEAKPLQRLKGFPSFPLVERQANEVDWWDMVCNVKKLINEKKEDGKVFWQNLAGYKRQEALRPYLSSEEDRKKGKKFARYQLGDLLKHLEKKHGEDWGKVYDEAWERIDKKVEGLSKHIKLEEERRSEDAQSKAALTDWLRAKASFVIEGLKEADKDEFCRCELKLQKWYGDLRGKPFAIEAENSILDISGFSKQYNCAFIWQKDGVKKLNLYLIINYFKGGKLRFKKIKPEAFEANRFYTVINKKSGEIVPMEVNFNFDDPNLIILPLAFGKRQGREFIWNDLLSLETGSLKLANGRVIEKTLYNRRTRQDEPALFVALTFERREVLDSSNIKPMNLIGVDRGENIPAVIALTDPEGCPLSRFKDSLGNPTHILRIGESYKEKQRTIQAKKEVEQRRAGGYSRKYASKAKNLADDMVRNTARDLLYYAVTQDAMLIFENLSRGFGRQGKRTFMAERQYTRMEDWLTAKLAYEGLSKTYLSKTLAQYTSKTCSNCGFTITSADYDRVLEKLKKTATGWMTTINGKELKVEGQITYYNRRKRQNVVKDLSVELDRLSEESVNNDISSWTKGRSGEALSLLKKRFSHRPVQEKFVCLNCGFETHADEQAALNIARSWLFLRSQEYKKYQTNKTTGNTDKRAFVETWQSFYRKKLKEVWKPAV

CasX variant 119 = molecular target: T2, CasX variant 119 (synthetic construct); experiment: cleavage_in_vitro
T2 chain: T1 chain with L399F, K404L, V658I, R856Y

B1: gRNA scaffold 174 + spacer 7.37 ; 7.37 TTC PAM target (ssRNA ; dsDNA)
RNA: ACUGGCGCUUUUAUCUGAUUACUUUGAGAGCCAUCACCAGCGACUAUGUCGUAGUGGGUAAAGCUCCCUCUUCGGAGGGAGCAUCAAAGGGGCCGAGAUGUCUCGCUCC
DNA 1: TGAAGCTGACAGCATTCGGGCCGAGATGTCTCGCTCCGTGGCCTTAGCTGTGCTCGCGCT
DNA 2: AGCGCGAGCACAGCTAAGGCCACGGAGCGAGACATCTCGGCCCGAATGCTGTCAGCTTCA
B1 was tested, and the activity (CasX variant 438) was 4.94 min⁻¹ and the activity (CasX variant 119) was 8.33 min⁻¹.
